From the supplement of paper PMC10567573

B1: TFE3 (parent)
chain: FHLGLEDILMEEEEGVVGGLSGGA

Variants of: B1
Assay: protein stability index of a GFP-peptide fusion (GPS, HEK-293T) (PSI 1-6); higher = more stable
Settings: c terminus: a fixed tail appended
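Further: lentivirally expressed fusions sorted by FACS into six bins by GFP to DsRed ratio, PSI derived from sequencing read proportions per bin multiplied by bin number.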

First: FHLGLEDILMEFEEGVVGGLSGGA
Second: FHLGLEDILMEWEEGVVGGLSGGA
The protein stability index of the first is higher: 2.14 for the first, 1.76 for the second.

Compared with FHLGLEDILMEMEEGVVGGLSGGA, FHLGLEDILMEGEEGVVGGLSGGA is higher in protein stability index: 2.29 for the first, 3.02 for the second.

Going from FHLGLEDILMEQEEGVVGGLSGGA to FHLGLEDILMEPEEGVVGGLSGGA, the protein stability index falls from 3.47 to 2.43.

Going from FHLGLEDILMEIEEGVVGGLSGGA to FHLGLEDILMEKEEGVVGGLSGGA, the protein stability index rises from 2.51 to 3.2.

Compared with FHLGLEDILMEREEGVVGGLSGGA, FHLGLEDILMENEEGVVGGLSGGA is higher in protein stability index: 2.47 for the first, 3.01 for the second.

First: FHLGLEDILMEVEEGVVGGLSGGA
Second: FHLGLEDILMECEEGVVGGLSGGA
The protein stability index of the first is lower: 1.74 for the first, 2.83 for the second.

Going from FHLGLEDILMETEEGVVGGLSGGA to FHLGLEDILMEHEEGVVGGLSGGA, the protein stability index falls from 3.72 to 3.09.

Compared with FHLGLEDILMTEEEGVVGGLSGGA, FHLGLEDILMYEEEGVVGGLSGGA is lower in protein stability index: 2.97 for the first, 2.38 for the second.

Going from FHLGLEDILMIEEEGVVGGLSGGA to FHLGLEDILMNEEEGVVGGLSGGA, the protein stability index rises from 2.08 to 3.11.

Going from FHLGLEDILMMEEEGVVGGLSGGA to FHLGLEDILMCEEEGVVGGLSGGA, the protein stability index rises from 1.82 to 2.6.

First: FHLGLEDILMREEEGVVGGLSGGA
Second: FHLGLEDILMKEEEGVVGGLSGGA
The protein stability index of the first is lower: 3.33 for the first, 3.35 for the second.

Compared with FHLGLEDILMVEEEGVVGGLSGGA, FHLGLEDILMQEEEGVVGGLSGGA is higher in protein stability index: 2.67 for the first, 2.91 for the second.

Compared with FHLGLEDILMFEEEGVVGGLSGGA, FHLGLEDILMPEEEGVVGGLSGGA is higher in protein stability index: 2.09 for the first, 2.7 for the second.

Compared with FHLGLEDILMWEEEGVVGGLSGGA, FHLGLEDILMSEEEGVVGGLSGGA is higher in protein stability index: 2.57 for the first, 2.95 for the second.

First: FHLGLEDILMAEEEGVVGGLSGGA
Second: FHLGLEDILMGEEEGVVGGLSGGA
The protein stability index of the first is higher: 3.08 for the first, 2.61 for the second.

First: FHLGLEDILMHEEEGVVGGLSGGA
Second: FHLGLEDILMDEEEGVVGGLSGGA
The protein stability index of the first is lower: 2.73 for the first, 3.66 for the second.

Going from FHLGLEDILMLEEEGVVGGLSGGA to FHLGLEDILMEETEGVVGGLSGGA, the protein stability index rises from 2.2 to 3.34.

First: FHLGLEDILMEEMEGVVGGLSGGA
Second: FHLGLEDILMEEKEGVVGGLSGGA
The protein stability index of the first is lower: 2.15 for the first, 3.41 for the second.

Going from FHLGLEDILMEEQEGVVGGLSGGA to FHLGLEDILMEEGEGVVGGLSGGA, the protein stability index falls from 3.4 to 2.58.

First: FHLGLEDILMEEAEGVVGGLSGGA
Second: FHLGLEDILMEEFEGVVGGLSGGA
The protein stability index of the first is higher: 2.83 for the first, 1.84 for the second.

Compared with FHLGLEDILMEESEGVVGGLSGGA, FHLGLEDILMEEIEGVVGGLSGGA is lower in protein stability index: 3.34 for the first, 1.88 for the second.

Going from FHLGLEDILMEEREGVVGGLSGGA to FHLGLEDILMEEWEGVVGGLSGGA, the protein stability index falls from 3.1 to 2.18.

Compared with FHLGLEDILMEENEGVVGGLSGGA, FHLGLEDILMEECEGVVGGLSGGA is lower in protein stability index: 3.55 for the first, 2.16 for the second.

First: FHLGLEDILMEEYEGVVGGLSGGA
Second: FHLGLEDILMEEPEGVVGGLSGGA
The protein stability index of the first is lower: 2.11 for the first, 2.41 for the second.

Going from FHLGLEDILMEEDEGVVGGLSGGA to FHLGLEDILMEEHEGVVGGLSGGA, the protein stability index falls from 3.3 to 3.19.

Compared with FHLGLEDILMEEVEGVVGGLSGGA, FHLGLEDILMEELEGVVGGLSGGA is lower in protein stability index: 2.46 for the first, 2.37 for the second.

Going from FHLGLEDILMEEEEFVVGGLSGGA to FHLGLEDILMEEEECVVGGLSGGA, the protein stability index rises from 2.42 to 3.24.

First: FHLGLEDILMEEEEEVVGGLSGGA
Second: FHLGLEDILMEEEEDVVGGLSGGA
The protein stability index of the first is higher: 4.39 for the first, 4.19 for the second.

Compared with FHLGLEDILMEEEEAVVGGLSGGA, FHLGLEYILMEEEEGVVGGLSGGA is lower in protein stability index: 4.1 for the first, 1.57 for the second.

Compared with FHLGLEIILMEEEEGVVGGLSGGA, FHLGLENILMEEEEGVVGGLSGGA is higher in protein stability index: 2.25 for the first, 3.04 for the second.

First: FHLGLELILMEEEEGVVGGLSGGA
Second: FHLGLEVILMEEEEGVVGGLSGGA
The protein stability index of the first is lower: 2.16 for the first, 2.89 for the second.

Compared with FHLGLEAILMEEEEGVVGGLSGGA, FHLGLEEILMEEEEGVVGGLSGGA is higher in protein stability index: 2.34 for the first, 3.56 for the second.

Compared with FHLGLEHILMEEEEGVVGGLSGGA, FHLGLEGILMEEEEGVVGGLSGGA is higher in protein stability index: 2.88 for the first, 3.54 for the second.

Going from FHLGLEFILMEEEEGVVGGLSGGA to FHLGLEKILMEEEEGVVGGLSGGA, the protein stability index rises from 2.28 to 2.77.

First: FHLGLEQILMEEEEGVVGGLSGGA
Second: FHLGLEPILMEEEEGVVGGLSGGA
The protein stability index of the first is lower: 3.19 for the first, 3.5 for the second.

Compared with FHLGLECILMEEEEGVVGGLSGGA, FHLGLERILMEEEEGVVGGLSGGA is lower in protein stability index: 2.34 for the first, 2.16 for the second.

Compared with FHLGLEMILMEEEEGVVGGLSGGA, FHLGLESILMEEEEGVVGGLSGGA is higher in protein stability index: 1.65 for the first, 3.31 for the second.

Going from FHLGLETILMEEEEGVVGGLSGGA to FHLGLEDYLMEEEEGVVGGLSGGA, the protein stability index rises from 3 to 3.99.

First: FHLGLEDQLMEEEEGVVGGLSGGA
Second: FHLGLEDALMEEEEGVVGGLSGGA
The protein stability index of the first is lower: 4.28 for the first, 4.33 for the second.

Compared with FHLGLEDFLMEEEEGVVGGLSGGA, FHLGLEDHLMEEEEGVVGGLSGGA is higher in protein stability index: 3.17 for the first, 4.01 for the second.

Compared with FHLGLEDPLMEEEEGVVGGLSGGA, FHLGLEDDLMEEEEGVVGGLSGGA is lower in protein stability index: 4.89 for the first, 4.59 for the second.

First: FHLGLEDGLMEEEEGVVGGLSGGA
Second: FHLGLEDMLMEEEEGVVGGLSGGA
The protein stability index of the first is higher: 4.2 for the first, 3.58 for the second.

Compared with FHLGLEDLLMEEEEGVVGGLSGGA, FHLGLEDTLMEEEEGVVGGLSGGA is higher in protein stability index: 3.78 for the first, 3.88 for the second.

Compared with FHLGLEDWLMEEEEGVVGGLSGGA, FHLGLEDKLMEEEEGVVGGLSGGA is higher in protein stability index: 3.24 for the first, 4.31 for the second.

First: FHLGLEDVLMEEEEGVVGGLSGGA
Second: FHLGLEDRLMEEEEGVVGGLSGGA
The protein stability index of the first is higher: 4.08 for the first, 3.93 for the second.

Going from FHLGLEDCLMEEEEGVVGGLSGGA to FHLGLEDSLMEEEEGVVGGLSGGA, the protein stability index rises from 4.03 to 4.28.

Going from FHLGLEDNLMEEEEGVVGGLSGGA to FHLGLEDELMEEEEGVVGGLSGGA, the protein stability index rises from 4.25 to 4.72.
